Test results taken from paper PMC11603049.

Target: MARV NPcore (VP35 NPBP removed by TEV) (Marburg virus (Mt. Elgon-Musoke strain), UniProt P27588 1-430)
Sequence (P27588 1-430): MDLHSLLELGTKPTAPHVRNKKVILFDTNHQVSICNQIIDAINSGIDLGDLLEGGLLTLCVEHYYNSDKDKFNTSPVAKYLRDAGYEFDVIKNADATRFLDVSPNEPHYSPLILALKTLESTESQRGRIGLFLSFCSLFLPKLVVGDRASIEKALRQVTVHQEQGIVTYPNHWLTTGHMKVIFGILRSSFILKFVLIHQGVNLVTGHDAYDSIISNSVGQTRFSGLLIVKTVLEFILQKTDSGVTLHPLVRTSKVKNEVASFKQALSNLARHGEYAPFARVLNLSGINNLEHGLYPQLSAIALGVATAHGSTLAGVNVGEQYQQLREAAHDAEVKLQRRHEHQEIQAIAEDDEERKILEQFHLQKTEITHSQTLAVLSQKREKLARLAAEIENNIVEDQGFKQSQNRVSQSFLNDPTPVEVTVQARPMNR

## AGACACACAAAAACAAGA (ssRNA) [18 nt ssRNA, first 18 bases of the MARV genome]
  binding result: binds
